Reference: patent US11026994B2, “Syndecan-2 compositions and methods of use” (ORBSEN THERAPEUTICS LIMITED, priority 2013, dated 2021)
“Also recorded” adds a separate entry of the source.

How the values were obtained:
SDC2 secretion = SDC2 secretion after environmental toxin BPDE; type: cell-based, human; conditions: 600 nM BPDE
SDC2 RNA = SDC2 RNA levels in treated cell populations; type: cell-based, human
Description: HDAC inhibitors and sirtuins may be used to increase SDC2 expression. […] The sirtuin family of HDACs, including SIRT1 and SIRT2, may be used to increase SDC2 expression. The sirtuins are NAD-dependant HDACs and are reported to deacetylate p53 protein—acetylation of p53 is reported to be important for its transactivation/transcription activity. Thus sirtuins are key regulators of p53 activity. Examples of sirtuins include nicotinamide, sirtinol, EX-527 and tenovins. […] DMSO is also reported to contain HDAC inhibitor (p53 activation) capacity.
DMOG is a hypoxia mimetic, and other hypoxia mimetics for use in the invention include cobalt chloride, EDHB and desferrioxamine. Hypoxia is reported to stimulate p53 (via ATR/CHK1 kinases).
We tested various HDAC inhibitors for their effect on SDC2 expression on human cell populations initially isolated on the basis of SDC2 expression and maintained subsequently in culture.

[1] = test system: SDC2 shedding from human MSCs; assay: SDC2 ELISA of supernatants of Nutlin-3a treated MSCs; type: cell-based; conditions: 24 h
Experimental: MSCs were plated at a density of 10^5 cells per well of a 6-well plate (Nunc) in complete media (α-MEM, 10% FBS) and left to adhere overnight. Medium was then exchanged for serum-free containing Nutlin-3a or DMSO as a carrier control. 24 h post-induction the cells were harvested for both RNA and protein and the serum-free supernatant was collected for ELISA.
The levels of human Syndecan-2 was measured in supernatants collected from hMSCs using commercially available ELISA assays (CUSABIO). The assay was conducted as per the manufacturer's instructions. Calibration curves were prepared using purified standards for SDC2. Curve fitting was accomplished by sigmoidal logisitic regression following manufacturer's instructions.
24 h post-treatment with Nutlin-3a (5, 10, 20 μM) or DMSO carrier control (5, 20 μM), the supernatant from MSCs was collected, centrifuged for 5 min at 1500 rpm and subjected to SDC2 ELISA including unconditioned serum-free media as an additional control.
MSCs treated with either Nutlin-3a or DMSO as a carrier control for 24 h in serum-free media. The serum-free supernatants were collected and a commercially available SDC2 ELISA kit was used to detect shed SDC2 present in the supernatants.

HCT116 = assay: Cancer cell migration toward conditioned medium (xCELLigence RTCA); type: cell-based; parameters: key: ↑: increased migration compared to conditioned media; ↓: decreased cell migration compared to conditioned media; —: no changed compared to conditioned media
Description: (§1) Cell migration is a critical parameter for in vitro cell culture-related studies. It is necessary to monitor the dynamic changes of cell populations under different conditions. Using a real time cell analyser (RTCA, xCELLigence, Roche) which is an impedance-based device we can monitor the following properties in real time: proliferation, migration and cell adherence. Such properties are involved in cancer evolution. We used this method to establish the migratory capacity of cancer cells toward conditioned medium. The model is accepted as predictive of efficacy in cancer therapy—reduced migration in the model indicates anti-cancer properties.
(§2) In our investigations, cell migration was determined using 16-well CIM plates read in real-time using the aforementioned xCELLigence device. For these studies a variety of cancer cell lines were used from breast cancer (MDA-MB-231, MDA-MB-486, MCF-10A), prostate cancer (DU145), pancreas cancer (SU-86-86) and colon carcinoma (HCT116).

[2] = test system: NFκB activation by TNFα and IL1β; assay: κB luciferase assay in A549 cells pretreated with SDC2 recombinant protein; type: cell-based; conditions: 10 ng/mL TNF-α/IL-1β, 24 hours
Experimental: A549 cells stably transduced with κB luciferase plasmid were pretreated for 1 hour with SDC2 recombinant protein. 10 ng/mL TNF-α/IL-1β was added to the media and luciferase assay performed after 24 hours. The results are shown in FIG. 5. ***=p<0.0001 with respect to 0 ng/mL S2
A549 cells stably transduced with KB luciferase plasmid and treated for 24 hours with recombinant SDC2. In the top panel: cytokines were added to the media for 24 hours and luciferase assay performed. In the bottom panel: media was replaced before addition of cytokines for 24 hours. *=p<0.01 with respect to 0 ng/mL S2; ***=p<0.0001 with respect to 0 ng/mL S2; +++=p<0.0001 with respect to 100 ng/mL S2.

SU-86-86 = assay: Cancer cell migration toward conditioned medium (xCELLigence RTCA); type: cell-based
Description: as §1, §2

MDA-MB-231 = assay: as above; type: cell-based; conditions: one symbol per experiment
Description: as §1, §2

Du145 = assay: as above; type: cell-based; conditions: Recombinant SDC2 500 ng/ml
Description: as §1, §2

[3] = other series of tests, time not given
[4] = at 24 hrs, human cell populations isolated on SDC2 expression

Molecule: OC1c2cc3ccc4cccc5ccc(c2C2OC2C1O)c3c45 (stereo not drawn) [BPDE, benzo[a]pyrene-7,8-diol-9,10-epoxide]
- increase of SDC2 secretion (SDC2 secretion): approximately 3 fold

Molecule: COC(=O)CNC(=O)C(=O)OC [DMOG, Dimethyloxaloylglycine]
- SDC2 RNA levels (SDC2 RNA; [3]): very robust increase in SDC2 RNA

Molecule: 2-pyrrolidinone-n-butyric acid [PBA]
- SDC2 RNA levels (SDC2 RNA; [4]): increased SDC2 RNA levels

Molecule: COc1ccc(C2=N[C@@H](c3ccc(Cl)cc3)[C@@H](c3ccc(Cl)cc3)N2C(=O)N2CCNC(=O)C2)c(OC(C)C)c1 [Nutlin-3a]
- SDC2 shedding ([1]; 5, 10, 20 μM, compared to DMSO control): dose-dependent increase in SDC2 shedding
- amount of shed SDC2 ([1]; Nutlin-3a 20 μM, serum-free, average of three MSC donors): ~1000 pg/mL

Molecule: CCCC(CCC)C(=O)O [Valproic Acid]
- SDC2 RNA levels (SDC2 RNA; [4]): increased SDC2 RNA levels

Molecule: C[S+](C)[O-] [DMSO]
- SDC2 RNA levels (SDC2 RNA; [3]): increased SDC2 RNA levels

Molecule: O=C1CCc2c(ccc3ccccc23)O1 [Splitomicin]
- SDC2 RNA levels (SDC2 RNA; [4]): increased SDC2 RNA levels; also recorded: greatest stimulation

B1: Recombinant SDC2: recombinant Syndecan-2 (SDC2) protein (protein, UniProt P34741 19-201, looked up)
Syndecan-2: ESRAELTSDKDMYLDNSSIEEASGVYPIDDDDYASASGSGADEDVESPELTTSRPLPKILLTSAAPKVETTTLNIQNKIPAQTKSPEETDKEKVHLSDSERKMDPAEEDTNVYTEKHSDSLFKRTEVLAAVIAGGVIGFLFAIFLILLLVYRMRKKDEGSYDLGERKPSSAAYQKAPTKEFYA
- Cancer Cell Migration (HCT116; Recombinant SDC2 100 ng/ml): ↓
- Cancer Cell Migration (HCT116; Recombinant SDC2 500 ng/ml): ↓
- Cancer Cell Migration (HCT116; Recombinant SDC2 1000 ng/ml): ↓
- NFκB activation by TNFα and IL1β [2]: suppressed NFκB activation
- Cancer Cell Migration (SU-86-86; Recombinant SDC2 100 ng/ml): ↓↑
- Cancer Cell Migration (SU-86-86; Recombinant SDC2 500 ng/ml): ↓↓
- Cancer Cell Migration (SU-86-86; Recombinant SDC2 1000 ng/ml): ↓↑
- Cancer Cell Migration (MDA-MB-231; Recombinant SDC2 100 ng/ml): ↓↓
- Cancer Cell Migration (MDA-MB-231; Recombinant SDC2 500 ng/ml): ↓↓↓↓↓—
- Cancer Cell Migration (Du145): ↓—
